# Experimental data taken from patent US20220242941A1 (NOVOBIND LIVESTOCK THERAPEUTICS, published 2022).
# Changes are numbered by the printed parent chain.
# T1: Eimeria tenella MIC2 (Eimeria tenella)
# T1 construct: Recombinant antigen coated on ELISA wells; also called EtMIC2
# T1 chain: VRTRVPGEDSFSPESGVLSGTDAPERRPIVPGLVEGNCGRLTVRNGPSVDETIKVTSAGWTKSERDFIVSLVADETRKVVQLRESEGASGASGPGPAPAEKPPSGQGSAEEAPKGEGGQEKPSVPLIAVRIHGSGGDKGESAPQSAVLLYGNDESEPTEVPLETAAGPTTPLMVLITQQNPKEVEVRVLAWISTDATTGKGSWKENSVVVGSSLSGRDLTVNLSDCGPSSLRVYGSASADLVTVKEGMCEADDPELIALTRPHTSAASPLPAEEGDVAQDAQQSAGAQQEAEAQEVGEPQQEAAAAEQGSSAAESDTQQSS
# T2: Eimeria maxima MIC2 (Eimeria maxima)
# T2 construct: Recombinant antigen coated on ELISA wells; also called EmMIC2
# T2 chain: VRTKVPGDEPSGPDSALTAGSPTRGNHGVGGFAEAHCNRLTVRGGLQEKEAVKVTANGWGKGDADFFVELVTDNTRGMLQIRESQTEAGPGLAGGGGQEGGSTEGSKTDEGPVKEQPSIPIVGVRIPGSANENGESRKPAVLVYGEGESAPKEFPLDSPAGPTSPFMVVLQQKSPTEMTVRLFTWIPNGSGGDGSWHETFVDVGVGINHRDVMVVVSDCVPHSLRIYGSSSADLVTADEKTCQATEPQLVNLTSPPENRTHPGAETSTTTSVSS
# B1: NBX17024 (VHH)
# VHH: QVQLQESGPGLVKPSQTLSLTCTVSGGSITTSYSTWSWIRQPPGKGLEWMGVIADDGSAEYSPSLKSRTSISLDTSKNQFSLQLSSVTPEDTAVYYCARRGGAWGSNWWAYHMDDWGKGTLVTVSS
# B2: NBX17019 (VHH)
# VHH: QVQLQESGGGLVQAGGSLRLSCTGPGSTFSSYAVGWYRQAPGGNREWVASISSSGEITRYADSVTGRFTISRDNAKNTVDLQMNSLRPEDTAVYYCAIGTMARGKGTLVTVSS
# B3: NBX17020 (VHH)
# VHH: QVQLQQSGGGLVQAGGSLRLSCAGSGRPFGSYVMGWYRQAPGEQREMVARMTSAGSGGVADYGESVKGRFAISRDYAKNMVFLQMNSLKPEDTAVYYCWSALGYWGQGTQVTVSS
# B4: NBX0726 (VHH)
# VHH: QVQLQQSGGGLVQAGGSVRLSCTANGLTFGNYAMAWFRRTPGKERAFVGGMSASGAGTYYLDSVKGRFTISRDTAKNTVYLEMNSLKAEDTAVYYCAANSIYPGRRWASYDYWGQGTQVTVSS
# B5: NBX0727 (VHH)
# VHH: QVQLQQSGGGLVQAGGSVRLSCAASGLTLGNYALAWFRRTPGKEREFVAGMSGSGAGTYYLDSVNGRFTISRDNAKNTLYLQMNSLKAEDTAVYYCAANSIYPGRRWASYDYWGQGTQVTVSS
# B6: NBX0749 (VHH)
# VHH: QVQLQESGGGLVQAGGSLRLSCATSGSIFSRDTMAWYRQVPGEQRELVAYITNFGGTNHADSVKGRFTISRDNAKNTVYLQMNSLKPEDTAVYYCAAGLLSLRTHTWEYWGQGTQVTVSS
# B7: NBX0748 (VHH)
# VHH: B6 VHH with A23V, T24A, T104S, Y109L
# B8: NBX0728 (VHH)
# VHH: B6 VHH with T24A, G26A, I51V, G98D, L100I
# B9: NBX0710 (VHH)
# VHH: QVQLQESGGGLVQAGGSLRLSCAASGSIFSINAMGWYRQAPGKQRELVAGITSGGSTNYADSVKGRFTISRDNAKNTVYLQMNSLKPEDTAVYYCAADYVGLGDDAFYVPYWGQGTQVTVSA
# B10: NBX0751 (VHH)
# VHH: QVQLQESGGGLVQPGGSLRLSCAVSGTIFSITPMGWYRQAPGKQRELVASISGGGSTNYTDPVKGRFTISRDKARNTVYLQMNNLKPEDTAVYYCNAASLAIVRGINNYWGQGTQVTVSS
# Target: T3, GST fusion of the EmAMA1-binding peptide of EmRON2 (Eimeria maxima, UniProt P08515 1-218 = GST)
# T3 construct: Expressed in E. coli, purified as the other antigens but without TEV cleavage, so a His tag and TEV site probably remain; also called GST-RON2 peptide
# T3 sequence (P08515 1-218, tags or fused parts left off): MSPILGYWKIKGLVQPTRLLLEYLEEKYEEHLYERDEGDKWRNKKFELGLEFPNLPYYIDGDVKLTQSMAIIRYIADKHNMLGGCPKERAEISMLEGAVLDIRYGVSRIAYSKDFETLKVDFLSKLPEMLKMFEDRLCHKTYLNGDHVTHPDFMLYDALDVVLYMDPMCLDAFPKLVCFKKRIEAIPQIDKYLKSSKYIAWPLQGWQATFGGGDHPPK
# Assay: phage ELISA, wells coated with GST-RON2 peptide
Binder,binding relative to GST-coated wells [times],binding relative to PBS-coated wells [times]
B1,≥ 3,≥ 4
B2,≥ 3,≥ 4
B3,≥ 3,≥ 4

# Target: T1, Eimeria tenella MIC2
# Assay: phage ELISA, antigen-coated wells;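 further: antigen dissolved in PBS and coated onto wells, with negative-control wells holding PBS alone as the reference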
# Excerpt: (§1) Black bars show binding to wells coated with the antigen specified in Tables 1 and 2 dissolved in phosphate-buffered saline (PBS). Grey bars are negative controls that show binding to wells coated with PBS only.
row,Binder,binding relative to PBS-coated wells [times]
1,B4,≥ 4
2,B5,≥ 4
3,B6,≥ 4
4,B7,≥ 4
5,B8,≥ 4

# Target: T2, Eimeria maxima MIC2
# Assay: phage ELISA, antigen-coated wells;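 further: antigen dissolved in PBS and coated onto wells, with negative-control wells holding PBS alone as the reference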
# Excerpt: as §1
row,Binder,binding relative to PBS-coated wells [times]
1,B9,≥ 4
2,B10,≥ 4
